Common to all, as to test: split reporter (BiFC, NanoBiT); split-GFP (mGFP2 split between residues 157 and 158) in Hfx. volcanii transformants in vivo; eight combinations of fusions a pair, highest relative fluorescence (rf) given; cells in basal salts (3 M NaCl, 150 mM MgSO4, 50 mM KCl) at OD600 1; rf > 5 clear interaction, rf < 1 no interaction
Assay [1] concerns the target GvpL fused to NGFP or CGFP (split-GFP) (Halobacterium salinarum PHH1).
In assay [2] the target is GvpF fused to NGFP or CGFP (split-GFP) (Halobacterium salinarum PHH1).
Chain of GvpF fused to NGFP or CGFP (split-GFP) (Halobacterium salinarum PHH1) (P24370 whole entry, the tested form may be a part): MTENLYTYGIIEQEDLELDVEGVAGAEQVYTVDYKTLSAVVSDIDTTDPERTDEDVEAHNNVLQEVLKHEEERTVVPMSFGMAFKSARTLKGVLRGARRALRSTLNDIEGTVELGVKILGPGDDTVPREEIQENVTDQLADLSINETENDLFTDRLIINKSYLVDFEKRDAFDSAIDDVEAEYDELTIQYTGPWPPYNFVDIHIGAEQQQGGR
For assay [3], the target named is GvpI fused to NGFP or CGFP (split-GFP) (Halobacterium salinarum PHH1).
The target in assay [4] is GvpG fused to NGFP or CGFP (split-GFP) (Halobacterium salinarum PHH1).
Chain of GvpG fused to NGFP or CGFP (split-GFP) (Halobacterium salinarum PHH1) (P24371 whole entry, the tested form may be a part): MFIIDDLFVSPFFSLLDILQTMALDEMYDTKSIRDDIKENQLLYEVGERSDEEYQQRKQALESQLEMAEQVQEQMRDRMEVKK
Assay [5] deals with GvpF fused to NGFP or CGFP (split-GFP) (Halobacterium salinarum PHH1). This is another data set of the same source.
Assay [6] addresses GvpJ fused to NGFP or CGFP (split-GFP) (Halobacterium salinarum PHH1).
The target in assay [7] is GvpH fused to NGFP or CGFP (split-GFP) (Halobacterium salinarum PHH1).
For assay [8], the target named is GvpL fused to NGFP or CGFP (split-GFP) (Halobacterium salinarum PHH1). The source holds these as a separate data set.
Chain of GvpL fused to NGFP or CGFP (split-GFP) (Halobacterium salinarum PHH1) (Q9HI27 whole entry, the tested form may be a part): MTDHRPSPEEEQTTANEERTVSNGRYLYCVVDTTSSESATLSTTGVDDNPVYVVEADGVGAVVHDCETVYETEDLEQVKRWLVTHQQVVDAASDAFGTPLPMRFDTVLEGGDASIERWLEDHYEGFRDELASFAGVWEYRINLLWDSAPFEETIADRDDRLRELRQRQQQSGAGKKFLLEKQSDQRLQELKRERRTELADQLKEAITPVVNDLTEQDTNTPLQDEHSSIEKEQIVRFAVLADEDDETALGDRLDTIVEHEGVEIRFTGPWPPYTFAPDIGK
The target of assay [9] is GvpM fused to NGFP or CGFP (split-GFP) (Halobacterium salinarum PHH1).
For assay [10], the target named is GvpG fused to NGFP or CGFP (split-GFP) (Halobacterium salinarum PHH1). This is another data set of the same source.
The target of assay [11] is GvpK fused to NGFP or CGFP (split-GFP) (Halobacterium salinarum PHH1).
Assay [12] addresses GvpI fused to NGFP or CGFP (split-GFP) (Halobacterium salinarum PHH1). This is another data set of the same source.

Numbering of substitutions follows the chain as printed. Names may count otherwise. Read-outs that look alike come from different tables or passages of the source.

As to “GvpF fused to NGFP or CGFP (split-GFP) (natural protein)”, the highest relative fluorescence (rf) in assay [1] turned out to be 16.6 rf. The relative fluorescence (rf) in [2] was 1.5 rf. As to “GvpK fused to NGFP or CGFP (split-GFP) (natural protein)”, the highest relative fluorescence (rf) in assay [1] turned out to be 7.4 rf. As for “GvpH fused to NGFP or CGFP (split-GFP) (natural protein)”, the figures for the highest relative fluorescence (rf) in [1], in [3] and in assay [2] were 11.4 rf, 20 rf and 6.3 rf, respectively.

For the molecule “GvpG fused to NGFP or CGFP (split-GFP) (natural protein)”, the highest relative fluorescence (rf) in [1] was 77.5 rf; in assay [2], 5 rf. Moreover, the relative fluorescence (rf) in assay [4] is 3.5 rf.

As for “GvpI fused to NGFP or CGFP (split-GFP) (natural protein)”, the highest relative fluorescence (rf) in assay [1] was 13.7 rf; in [2], 6.3 rf. In the case of GVVVDVWARVSLVGIEILTVEARVVAAS (domain or fragment) [GvpA fragment A20-47 fused to NGFP or CGFP (split-GFP)], the highest relative fluorescence (rf) in [5] was under 1 rf.

B1: GvpA fused to NGFP or CGFP (split-GFP) (natural protein)
chain: MAQPDSSGLAEVLDRVLDKGVVVDVWARVSLVGIEILTVEARVVAASVDTFLHYAEEIAKIEQAELTAGAEAAPEA
As for B1, the highest relative fluorescence (rf) in [6], in assay [7], in assay [8], in [9], in [10] and in [11] was under 1 rf each time. Moreover, the highest relative fluorescence (rf) in assay [12] was under 1 rf; in assay [5] it was 20 rf. In assay [5], the relative fluorescence (rf) fell in the range of 15 to 18 rf.

B2: GvpA E40A (split-GFP fusion) (natural protein)
chain: B1 chain with E40A
With B2, the relative fluorescence (rf) in [5] was under 6 rf.

B3: GvpA R28A (split-GFP fusion) (natural protein)
chain: B1 chain with R28A
With B3, the relative fluorescence (rf) in assay [5] is under 6 rf.

B4: GvpA D24Y (split-GFP fusion) (natural protein)
chain: B1 chain with D24Y
Regarding B4, the relative fluorescence (rf) in [5] is under 6 rf.

B5: GvpA R28D (split-GFP fusion) (natural protein)
chain: B1 chain with R28D
B5: the relative fluorescence (rf) in [5] is under 6 rf.

B6: GvpA D24A (split-GFP fusion) (natural protein)
chain: B1 chain with D24A
As to B6, the relative fluorescence (rf) in [5] was under 6 rf.

B7: GvpA G20A (split-GFP fusion) (natural protein)
chain: B1 chain with G20A
In the case of B7, the relative fluorescence (rf) in [5] was under 6 rf.

B8: GvpA G20D (split-GFP fusion) (natural protein)
chain: B1 chain with G20D
Consider B8, for which the relative fluorescence (rf) in assay [5] was under 6 rf. Turning to MAQPDSSGLAEVLDRVLDKGVV (domain or fragment) [GvpA fragment A1-22 fused to NGFP or CGFP (split-GFP)], in assay [5], the highest relative fluorescence (rf) came out at 41 rf. In the case of VAASVDTFLHYAEEIAKIEQAELTAGAEAAPEA (domain or fragment) [GvpA fragment A44-76 fused to NGFP or CGFP (split-GFP)], the highest relative fluorescence (rf) in [5] is under 1 rf.

Values taken from article PMC7688916 (2020).
